According to patent publication US20260139035A1 (NATIONAL UNIVERSITY CORPORATION KUMAMOTO UNIVERSITY, published 2026):

Molecular target: spike protein of SARS-CoV (SARS-CoV, UniProt P59594 14-1255)
Experiment: cell-based or functional assay

B1: 4-66 antibody (antibody, V domains shown)
VH: EVQLVESGGGLVQPGGSLRLSCAASGIIVSRNYMTWVRQAPGKGLEWVSVIYSGGTTYYADSVKGRFTTSRDDSKNTLYLQMNSLRGDDTAVYYCARDPPHRRGSYWGQGTLVTVSS
VL: DILMTQSPSSLSASVGDRVTITCQASQDINKYLNWYQQKPGKAPKLLIYDASNLETGVPSRFSGSGSGTDFSFTISSLQPEDVATYYCQQSDNLPPTFGQGTNVEIK
  IC50, neutralization: 0.55 µg/mL
